# Experimental data published in patent CN115466329A (GUANGDONG FAPON PHARMACEUTICAL CO LTD, dated 2022).
# T1: 小鼠PD1 expressed on CHO cells (CHO-mousePD1) (mouse, UniProt Q02242 25-288)
# T1 construct: whole, on cells; also called CHO-mPD1
# T1 sequence (looked up): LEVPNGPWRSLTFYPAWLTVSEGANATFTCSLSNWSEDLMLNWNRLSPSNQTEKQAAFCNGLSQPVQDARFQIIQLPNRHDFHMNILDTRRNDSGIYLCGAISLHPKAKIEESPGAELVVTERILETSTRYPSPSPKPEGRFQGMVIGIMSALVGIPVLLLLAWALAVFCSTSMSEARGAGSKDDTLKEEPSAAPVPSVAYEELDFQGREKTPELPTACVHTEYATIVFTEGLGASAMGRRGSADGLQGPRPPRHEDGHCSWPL
# T2: CTLA-4 (ACRO) coated on the ELISA plate (UniProt P16410 37-162, limits assumed)
# T2 sequence (looked up): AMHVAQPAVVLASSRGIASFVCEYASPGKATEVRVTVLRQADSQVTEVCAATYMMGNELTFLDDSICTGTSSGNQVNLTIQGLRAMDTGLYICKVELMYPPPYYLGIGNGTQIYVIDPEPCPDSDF
# T3: ICOS (ACRO) coated on the ELISA plate (UniProt Q9Y6W8 21-140)
# T3 sequence (looked up): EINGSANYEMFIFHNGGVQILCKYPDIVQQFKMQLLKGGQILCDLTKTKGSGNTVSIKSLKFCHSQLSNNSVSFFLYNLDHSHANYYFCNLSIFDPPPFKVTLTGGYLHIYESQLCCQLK
# How the values were obtained:
# PD-1-his(ACRO)重组蛋白 = molecular target: T4, PD-1-his(ACRO)重组蛋白 (UniProt Q15116 25-167); assay: BLI (ForteBio Octet QKe), PD-1-his loaded on HIS1K sensor, antibody in solution
# T4 construct: Bought (ACRO); not shown: his tag
# [1] = molecular target: T1, 小鼠PD1 expressed on CHO cells …; assay: flow cytometry on CHO-mousePD1 cells
# [2] = molecular target: CD28 (ACRO) coated on the ELISA plate (UniProt P10747 19-152); assay: ELISA, antigen coated at 1μg/ml
# [3] = molecular target: T2, CTLA-4 (ACRO) coated on the ELISA plate; assay: ELISA, antigen coated at 1μg/ml
# [4] = molecular target: T3, ICOS (ACRO) coated on the ELISA plate; assay: ELISA, antigen coated at 1μg/ml
# T4 sequence (Q15116 25-167 limits assumed): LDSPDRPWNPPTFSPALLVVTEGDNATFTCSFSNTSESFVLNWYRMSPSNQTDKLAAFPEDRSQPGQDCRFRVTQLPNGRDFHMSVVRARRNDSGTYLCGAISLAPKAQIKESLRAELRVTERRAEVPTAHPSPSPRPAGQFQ
# Sequence of CD28 (ACRO) coated on the ELISA plate (P10747 19-152 limits assumed): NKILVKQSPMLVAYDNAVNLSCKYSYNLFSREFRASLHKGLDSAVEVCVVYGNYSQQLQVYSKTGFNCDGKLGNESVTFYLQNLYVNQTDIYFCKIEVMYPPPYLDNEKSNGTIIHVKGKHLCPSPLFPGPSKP
binder,measurement,setting,value
"抗PD-1鼠单抗PD-1-76-C2 (antibody, V domains shown, Mouse monoclonal antibody from a hybridoma; an mIgG1 isotype control was used; also called PD-76-C2; 抗人PD-1鼠单抗) VH: QIQLVQSGPELKKPGETVKISCKASGYTFTNYGMNWVKQAPGKGLKWMGWINTHTGEPTYADDFKGRFAFSLETSASTAYLQIKNLKNEDVATYFCTKEGEGIGFAYWGQGTLVTVSA VL: DVLMTQTPLSLPVSLGDQASISCRSSQSIVYSNGKTYLEWYLQKPGQSPKLLIYKVSNRFSGVPDRFSGSGSGTDFTLKISRVEAEDLGVYYCFQGSHVPNTFGGGTKLEIKR",Kd,PD-1-his(ACRO)重组蛋白,< 1 pM
same,koff,PD-1-his(ACRO)重组蛋白,< 1e-07 s⁻¹
same,kon,PD-1-his(ACRO)重组蛋白,771000 M⁻¹ s⁻¹
same,binding result,[1],no binding (tested: 初始浓度为10μg/ml)
same,binding result,[2],no binding (tested: 10μg/ml)
same,binding result,[3],no binding (tested: 10μg/ml)
same,binding result,[4],no binding (tested: 10μg/ml)
